B1: WW domain-binding protein 4 (Homo sapiens), O75554 (parent)
chain: MADYWKSQPKKFCDYCKCWIADNRPSVEFHERGKNHKENVAKRISEIKQKSLDKAKEEEKASKEFAAMEAAALKAYQEDLKRLGLESEILEPSITPVTSTIPPTSTSNQQKEKKEKKKRKKDPSKGRWVEGITSEGYHYYYDLISGASQWEKPEGFQGDLKKTAVKTVWVEGLSEDGFTYYYNTETGESRWEKPDDFIPHTSDLPSSKVNENSLGTLDESKSSDSHSDSDGEQEAEEGGVSTETEKPKIKFKEKNKNSDGGSDPETQKEKSIQKQNSLGSNEEKSKTLKKSNPYGEWQEIKQEVESHEEVDLELPSTENEYVSTSEADGGGEPKVVFKEKTVTSLGVMADGVAPVFKKRRTENGKSRNLRQRGDDQ
B2: WW domain-binding protein 4 (Homo sapiens), O75554 (parent)
chain: B1 chain
partner: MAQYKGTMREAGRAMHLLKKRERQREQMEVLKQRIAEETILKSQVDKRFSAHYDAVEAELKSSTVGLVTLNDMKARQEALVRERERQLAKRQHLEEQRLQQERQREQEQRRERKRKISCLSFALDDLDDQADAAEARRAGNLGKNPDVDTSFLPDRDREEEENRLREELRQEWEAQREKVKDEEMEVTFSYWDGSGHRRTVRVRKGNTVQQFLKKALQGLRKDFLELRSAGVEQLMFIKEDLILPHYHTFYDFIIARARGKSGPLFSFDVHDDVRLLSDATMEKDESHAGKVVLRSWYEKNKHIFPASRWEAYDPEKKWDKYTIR
B3: WW domain-binding protein 4 (Homo sapiens), O75554 (parent)
chain: B1 chain
partner: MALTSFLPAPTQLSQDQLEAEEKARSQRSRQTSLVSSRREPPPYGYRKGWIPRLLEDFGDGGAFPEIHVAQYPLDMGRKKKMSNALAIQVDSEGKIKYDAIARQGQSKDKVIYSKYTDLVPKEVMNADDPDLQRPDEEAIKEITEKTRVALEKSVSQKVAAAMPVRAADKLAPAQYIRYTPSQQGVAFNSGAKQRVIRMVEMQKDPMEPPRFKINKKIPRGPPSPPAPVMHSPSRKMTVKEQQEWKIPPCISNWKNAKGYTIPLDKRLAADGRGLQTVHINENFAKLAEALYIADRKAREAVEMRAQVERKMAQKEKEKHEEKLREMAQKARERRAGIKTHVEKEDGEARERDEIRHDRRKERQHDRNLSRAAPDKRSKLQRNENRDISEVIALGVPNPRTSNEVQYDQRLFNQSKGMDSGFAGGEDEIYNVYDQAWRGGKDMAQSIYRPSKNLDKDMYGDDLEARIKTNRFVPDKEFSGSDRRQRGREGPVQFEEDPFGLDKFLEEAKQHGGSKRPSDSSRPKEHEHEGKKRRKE
B4: WW domain-binding protein 4 (Homo sapiens), O75554 (parent)
chain: B1 chain
partner: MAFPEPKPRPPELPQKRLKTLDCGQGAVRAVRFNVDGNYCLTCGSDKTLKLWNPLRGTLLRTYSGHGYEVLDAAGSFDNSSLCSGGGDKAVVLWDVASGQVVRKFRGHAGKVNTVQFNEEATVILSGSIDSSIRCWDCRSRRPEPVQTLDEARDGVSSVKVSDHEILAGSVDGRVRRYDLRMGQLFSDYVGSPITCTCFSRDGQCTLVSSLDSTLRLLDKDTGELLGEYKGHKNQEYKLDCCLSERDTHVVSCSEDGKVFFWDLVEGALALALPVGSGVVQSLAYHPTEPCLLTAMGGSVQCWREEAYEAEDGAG

Variants of: B1
Details: with u520_human SNRNP200, O75643
Sequence of u520_human SNRNP200, O75643 (O75643 whole entry): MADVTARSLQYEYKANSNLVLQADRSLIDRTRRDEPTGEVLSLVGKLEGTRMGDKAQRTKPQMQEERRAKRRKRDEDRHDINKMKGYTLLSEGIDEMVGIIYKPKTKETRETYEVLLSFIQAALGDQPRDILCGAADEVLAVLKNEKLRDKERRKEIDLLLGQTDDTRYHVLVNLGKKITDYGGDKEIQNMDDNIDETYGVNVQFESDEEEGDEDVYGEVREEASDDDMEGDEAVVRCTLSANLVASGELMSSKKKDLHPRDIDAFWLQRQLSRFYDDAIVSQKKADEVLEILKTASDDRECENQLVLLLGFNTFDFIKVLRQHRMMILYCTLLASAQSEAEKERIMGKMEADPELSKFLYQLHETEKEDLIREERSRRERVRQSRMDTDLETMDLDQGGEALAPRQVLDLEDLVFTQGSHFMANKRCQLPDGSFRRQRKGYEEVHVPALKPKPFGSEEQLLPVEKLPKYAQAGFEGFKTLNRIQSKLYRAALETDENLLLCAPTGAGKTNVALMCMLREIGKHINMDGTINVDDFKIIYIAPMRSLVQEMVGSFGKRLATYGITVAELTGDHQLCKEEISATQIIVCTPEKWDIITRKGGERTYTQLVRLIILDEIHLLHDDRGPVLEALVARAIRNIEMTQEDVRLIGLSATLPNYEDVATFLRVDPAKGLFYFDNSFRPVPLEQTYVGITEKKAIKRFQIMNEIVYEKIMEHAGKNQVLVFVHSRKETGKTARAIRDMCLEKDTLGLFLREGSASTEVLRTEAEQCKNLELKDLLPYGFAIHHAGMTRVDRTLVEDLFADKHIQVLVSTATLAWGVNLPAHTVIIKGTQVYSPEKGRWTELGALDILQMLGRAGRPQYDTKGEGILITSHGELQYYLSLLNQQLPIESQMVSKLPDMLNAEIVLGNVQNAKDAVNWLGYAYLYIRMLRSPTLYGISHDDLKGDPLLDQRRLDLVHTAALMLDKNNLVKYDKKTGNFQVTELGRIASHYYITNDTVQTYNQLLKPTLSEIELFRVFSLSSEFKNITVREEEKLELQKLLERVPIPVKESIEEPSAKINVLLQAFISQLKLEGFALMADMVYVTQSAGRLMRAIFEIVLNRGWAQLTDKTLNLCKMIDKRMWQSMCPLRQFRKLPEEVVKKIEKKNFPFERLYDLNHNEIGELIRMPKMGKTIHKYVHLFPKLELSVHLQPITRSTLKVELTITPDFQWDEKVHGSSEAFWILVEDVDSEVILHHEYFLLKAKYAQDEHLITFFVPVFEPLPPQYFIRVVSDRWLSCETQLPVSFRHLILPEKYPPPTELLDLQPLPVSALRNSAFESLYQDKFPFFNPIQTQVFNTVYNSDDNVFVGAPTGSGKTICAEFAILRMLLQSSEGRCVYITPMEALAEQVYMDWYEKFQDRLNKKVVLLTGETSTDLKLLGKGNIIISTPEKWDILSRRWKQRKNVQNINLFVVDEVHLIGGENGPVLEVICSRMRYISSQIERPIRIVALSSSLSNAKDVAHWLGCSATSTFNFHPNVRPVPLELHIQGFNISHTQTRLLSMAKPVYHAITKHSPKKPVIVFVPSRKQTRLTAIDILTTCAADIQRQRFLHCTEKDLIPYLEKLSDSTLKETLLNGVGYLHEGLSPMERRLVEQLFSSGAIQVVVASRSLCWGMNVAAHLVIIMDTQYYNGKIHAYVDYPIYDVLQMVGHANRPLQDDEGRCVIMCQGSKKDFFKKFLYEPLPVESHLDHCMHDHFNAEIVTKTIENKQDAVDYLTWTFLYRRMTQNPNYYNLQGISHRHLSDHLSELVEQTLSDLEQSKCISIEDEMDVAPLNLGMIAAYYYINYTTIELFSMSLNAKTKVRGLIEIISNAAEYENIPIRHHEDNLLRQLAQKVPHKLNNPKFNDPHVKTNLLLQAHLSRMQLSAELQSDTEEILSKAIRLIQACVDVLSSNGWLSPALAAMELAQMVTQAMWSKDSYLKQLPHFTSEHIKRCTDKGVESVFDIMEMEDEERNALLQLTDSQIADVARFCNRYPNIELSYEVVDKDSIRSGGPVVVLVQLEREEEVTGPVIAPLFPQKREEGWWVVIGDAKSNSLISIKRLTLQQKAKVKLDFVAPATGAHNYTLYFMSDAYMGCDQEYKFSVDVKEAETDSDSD

Variant | effect of a mutation on the interaction
K357E;R359E | with no effect

Variants of: B1
Details: with u520_human SNRNP200, O75643
Remark: another data set of the same source

Variant | effect of a mutation on the interaction
K357E;R359E | decreasing interaction strength
K358A;R360A | decreasing interaction strength

Variants of: B1
Details: with u520_human SNRNP200, O75643
Remark: another data set of the same source

Variant | effect of a mutation on the interaction
W150A | with no effect

Variants of: B1
Details: with ppih_human PPIH

Variant | effect of a mutation on the interaction
W150A | with no effect

Variants of: B1
Details: with sf3b2_human SF3B2, Q13435
Sequence of sf3b2_human SF3B2, Q13435 (Q13435 whole entry): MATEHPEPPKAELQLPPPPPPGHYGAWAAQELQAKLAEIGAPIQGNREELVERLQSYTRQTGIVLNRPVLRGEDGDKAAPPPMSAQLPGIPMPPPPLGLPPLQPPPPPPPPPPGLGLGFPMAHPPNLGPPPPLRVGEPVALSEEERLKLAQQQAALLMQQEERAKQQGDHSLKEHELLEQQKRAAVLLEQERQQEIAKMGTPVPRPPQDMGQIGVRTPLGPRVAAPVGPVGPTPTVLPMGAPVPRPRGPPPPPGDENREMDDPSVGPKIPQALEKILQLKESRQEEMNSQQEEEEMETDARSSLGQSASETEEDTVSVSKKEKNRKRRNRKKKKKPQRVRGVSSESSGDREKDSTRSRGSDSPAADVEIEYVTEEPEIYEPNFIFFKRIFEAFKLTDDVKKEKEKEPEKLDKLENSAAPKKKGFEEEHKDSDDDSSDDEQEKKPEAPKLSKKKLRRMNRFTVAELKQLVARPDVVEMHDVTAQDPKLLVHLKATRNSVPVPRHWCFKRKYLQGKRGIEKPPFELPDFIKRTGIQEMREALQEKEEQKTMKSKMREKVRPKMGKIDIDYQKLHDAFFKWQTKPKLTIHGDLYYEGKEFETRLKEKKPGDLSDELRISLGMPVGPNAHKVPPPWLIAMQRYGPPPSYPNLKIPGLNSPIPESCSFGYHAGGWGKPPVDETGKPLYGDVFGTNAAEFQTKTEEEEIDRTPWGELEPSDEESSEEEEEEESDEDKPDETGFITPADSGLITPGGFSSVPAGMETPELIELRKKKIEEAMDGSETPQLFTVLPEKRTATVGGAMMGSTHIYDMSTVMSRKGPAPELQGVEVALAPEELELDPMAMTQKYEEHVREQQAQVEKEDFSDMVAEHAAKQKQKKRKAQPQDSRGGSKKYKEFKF

Variant | effect of a mutation on the interaction
W150A | with no effect

Variants of: B1
Details: with zc21a_human ZC2HC1A

Variant | effect of a mutation on the interaction
W150A | with no effect

Variants of: B2
Details: with fa50b_human FAM50B

Variant | effect of a mutation on the interaction
W150A | with no effect

Variants of: B3
Details: with snw1_human SNW1, Q13573

Variant | effect of a mutation on the interaction
W150A | with no effect

Variants of: B4
Details: with wdr83_human WDR83, Q9BRX9

Variant | effect of a mutation on the interaction
W150A | with no effect

From IntAct's records for PubMed 28838205
